Assay results reported in article PMC8525636.
Each block holds one substance with its values, some of them ahead of it.

Legend:
[1] = target: recombinant human IgA1-Fc CH2-CH3-TP, C471S mutant; assay: SEC (size-exclusion chromatography), self-association into poly-hu-rIgA; settings: parent: est. 9.0; read off a plot
[2] = target: recombinant rat IgA-Fc segment CH2-CH3-TP, C311S mutant; assay: SEC (size-exclusion chromatography), self-association into poly-rIgA; settings: parent: est. 32; read off a plot
[3] = target: recombinant rat IgA-Fc segment CH2-CH3-TP, C311/471S double mutant; assay: as above; settings: parent: est. 32; read off a plot
[4] = target: recombinant rat IgA-Fc segment CH2-CH3-TP, C471S mutant; assay: as above; settings: parent: est. 32; read off a plot

- other: Distribution (%), poly-hu-rIgA share of SEC AUC [1]: 4%
Substance: recombinant human IgA1-Fc CH2-CH3-TP, wild type (human rIgA1-Fc) C471S

- other: Distribution (%), poly-rIgA share of SEC AUC [2]: 28%
Substance: recombinant rat IgA-Fc segment CH2-CH3-TP, wild type (rat rIgA) C311S

- other: Distribution (%), poly-rIgA share of SEC AUC [3]: 1.5%
Substance: recombinant rat IgA-Fc segment CH2-CH3-TP, wild type (rat rIgA) C311S; C471S

- other: Distribution (%), poly-rIgA share of SEC AUC [4]: 2.5%
Substance: recombinant rat IgA-Fc segment CH2-CH3-TP, wild type (rat rIgA) C471S
